From publication PMC3557450

Target: soluble recombinant pMHC II I-E^d/λ2^315 (not stated | mouse)
Experiment: SPR

Row | Kd [µM] | Substance
1 | 7 | soluble scTCR Vαβ 4B2A1 mutant PRS (L115P^linker/K199R^Vβ/L214S^Vβ)
2 | 5.8 | soluble scTCR Vαβ 4B2A1 mutant PS (L115P^linker/L214S^Vβ)
